The values below come from publication PMC11557686.

The labels stand for the following.
B1: SmBiT-SEC24A [not stated] / LgBiT-SURF4 [not stated] (parent)
chain 1: MSQPGIPASGGAPASLQAQNGAALASGSPYTNGPVQNALLSSQESVSQGYNFQLPGSYPHPIPAKTLNPVSGQSNYGGSQGSGQTLNRPPVASNPVTPSLHSGPAPRMPLPASQNPATTPMPSSSFLPEANLPPPLNWQYNYPSTASQTNHCPRASSQPTVSGNTSLTTNHQYVSSGYPSLQNSFIKSGPSVPPLVNPPLPTTFQPGAPHGPPPAGGPPPVRALTPLTSSYRDVPQPLFNSAVNQEGITSNTNNGSMVVHSSYDEIEGGGLLATPQLTNKNPKMSRSVGYSYPSLPPGYQNTTPPGATGVPPSSLNYPSGPQAFTQTPLGANHLTTSMSGLSLQPEGLRVVNLLQERNMLPSTPLKPPVPNLHEDIQKLNCNPELFRCTLTSIPQTQALLNKAKLPLGLLLHPFKDLVQLPVVTSSTIVRCRSCRTYINPFVSFLDQRRWKCNLCYRVNDVPEEFLYNPLTRVYGEPHRRPEVQNATIEFMAPSEYMLRPPQPPVYLFVFDVSHNAVETGYLNSVCQSLLDNLDLLPGNTRTKIGFITFDSTIHFYGLQESLSQPQMLIVSDIEDVFIPMPENLLVNLNESKELVQDLLKTLPQMFTKTLETQSALGPALQAAFKLMSPTGGRMSVFQTQLPTLGVGALKPREEPNHRSSAKDIHMTPSTDFYKKLALDCSGQQVAVDLFLLSGQYSDLASLGCISRYSAGSVYYYPSYHHQHNPVQVQKLQKELQRYLTRKIGFEAVMRIRCTKGLSIHTFHGNFFVRSTDLLSLPNVNPDAGYAVQMSVEESLTDTQLVSFQSALLYTSSKGERRIRVHTLCLPVVSTLNDVFLGADVQAISGLLANMAVDRSMTASLSDARDALVNAVIDSLSAYRSSVLSNQQPGLMVPFSLRLFPLFVLALLKQKSFQTGTNARLDERIFAMCQVKNQPLVYLMLTTHPSLYRVDNLSDEGALNISDRTIPQPPILQLSVEKLSRDGAFLMDAGSVLMLWVGKNCTQNFLSQVLGVQNYASIPQPMTDLPELDTPESARIIAFISWLREQRPFFPILYVIRDESPMKANFLQNMIEDRTESALSYYEFLLHIQQQVNK
chain 2: MGQNDLMGTAEDFADQFLRVTKQYLPHVARLCLISTFLEDGIRMWFQWSEQRDYIDTTWNCGYLLASSFVFLNLLGQLTGCVLVLSRNFVQYACFGLFGIIALQTIAYSILWDLKFLMRNLALGGGLLLLLAESRSEGKSMFAGVPTMRESSPKQYMQLGGRVLLVLMFMTLLHFDASFFSIVQNIVGTALMILVAIGFKTKLAALTLVVWLFAINVYFNAFWTIPVYKPMHDFLKYDFFQTMSVIGGLLLVVALGPGGVSMDEKKKEW

This test covers variants of B1. The experiment in a line: NanoBiT. Conditions: with LgBiT-SURF4; six technical replicates in each of three independent biological replicates; parent: 1; read off a plot.
Consider chain 1 R750A R752A, for which the ratio to parent came to 0.5.
In the case of chain 1 Y437A it was 0.62.
In the case of chain 1 K813A it was 0.98; in that of chain 1 R541A, 1.
